Data taken from patent US20220177589A1 (OXFORD UNIVERSITY INNOVATION, published 2022).
Residue numbers refer to the chain shown, from its start.

B1: 7A1 (antibody, IgG1, V domains shown)
VH: QVQLQQSGPELVKPGASVKISCKASGYAFSSSWMNWVKQRPGKGLEWIGRIYPGDGDTNYNGKFKGKATLTADKSSSTAYMQLSSLTSEDSAVYFCARRGYGYLAYWGQGTLVTVSA
VL: DIVMTQSHKFMSTSVGDRVSITCKASQDVSTAVAWYQQKPGQSPKLLIYSASYRYTGVPDRFTGSGSGTDFTFTISSVQAEDLAVYYCQQHYSTPWTFGGGTKLEIK
B2: 15C6 (antibody, IgG1, V domains shown)
VH: B1 VH
VL: B1 VL with W96Y
B3: 3E8 (antibody, IgG1, V domains shown)
VH: QVQLQQSGAELARPGASVRLSCKASGYTFTSYAIRWVKQRTGQGLEWIGEIYPRSGNTYYNENFKGKATLTADKSSSTAYMELRSLTSEDSAVYFCARSGGASYTMDYWGQGTSVTVSS
VL: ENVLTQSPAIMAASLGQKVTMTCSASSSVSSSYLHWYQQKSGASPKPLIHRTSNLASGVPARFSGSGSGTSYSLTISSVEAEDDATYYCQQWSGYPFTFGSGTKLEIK
B4: 10B1 (antibody, IgG1, V domains shown)
VH: QVQLQQSGAELARPGASVKLSCKASGYTFTSYGISWVKQRTGQGLEWIGEIYPRSGNTYYNEKFKGKATLTADKSSSTAYMELRSLTSEDSAVYFCARNYGSSYPFAYWGQGTLVTVSA
VL: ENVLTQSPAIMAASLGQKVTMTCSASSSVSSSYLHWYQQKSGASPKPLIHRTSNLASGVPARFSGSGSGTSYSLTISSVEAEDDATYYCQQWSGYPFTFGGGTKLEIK
B5: 16E1 (antibody, IgG1, V domains shown)
VH: B4 VH with N99G, P105G
VL: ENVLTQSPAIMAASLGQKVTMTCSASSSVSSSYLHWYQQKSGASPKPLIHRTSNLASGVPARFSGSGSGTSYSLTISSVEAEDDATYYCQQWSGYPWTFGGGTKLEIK
B6: 12F11 (antibody, IgG1, V domains shown)
VH: EVQLQQSGPELVKPGASVKISCKASGYTFTDYYMNWVKQSHGKSLEWIGDINPNNGGTSYNQKFKGKATLTVDKSSSTAYMELRSLTSEDSAVYYCARWRQLRSDYWGQGTTLTVSS
VL: DIQMTQSPASQSASLGESVTITCLASQTIGTWLAWYQQKPGKSPQLLIYAATSLADGVPSRFSGSGSGTKFSFKISSLQAEDFVSYYCQQLYSTPLTFGAGTKLELK
B7: 26B1 (antibody, IgG1, V domains shown)
VH: EVQLQQSGPVLVKPGASVKMSCKASGYTFTDYYLNWVKQSHGKSLEWIGLIDPYNGGSSCNQKFKGKATLTVDKSSSTAYMDLNSLTSEDSAVYYCARGNAMDYWGQGTSVTVSS
VL: DIVMTQSHKFMSTSVGDRVSITCKASQDVSTAVAWYQEKPGQSPKLLIYWASTRHTGVPDRFTGSGSGTDYILNISSVQAEDLALYYCQQHYIIPYMFGGGTKLEIK
B8: 27G9 (antibody, IgG1, V domains shown)
VH: EVQLQQSVAELVRPGASVKLSCTASGFNIKNTYMHWVKQRPEQGLEWIGRIDPANGNTKYAPKFQGKATITADTSSNTAYLQLSSLTSEDTAIYYCALTYYGSSQYYFDYWGQGTTLTVSS
VL: not shown
B9: 1H6 (antibody, IgG1, V domains shown)
VH: B8 VH with A61D, L81V, Y106H
VL: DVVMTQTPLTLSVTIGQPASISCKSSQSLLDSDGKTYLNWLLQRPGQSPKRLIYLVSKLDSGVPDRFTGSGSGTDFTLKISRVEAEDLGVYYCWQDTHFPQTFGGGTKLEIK
B10: 26F3 (antibody, IgG1, V domains shown)
VH: B8 VH with H35Y, T99L, Q105Y, Y106D
VL: not shown
B11: 8C4 (antibody, IgG1, V domains shown)
VH: DVQLQESGPGMVKPSQSLSLTCTVTGYSITSGYDWHWIRHFPGNKLEWMGYISYSGSTNYNPSLKSRISITHDTSKNHFFLKLNSVTTEDTATYYCARGTPVVAEDYFDYWGQGTTLTVSS
VL: QAVVTQESALSTSPGETVTLTCRSSTGAVTTSNYANWVQEKPDHLFTGLIGATNNRAPGVPARFSGSLIGDKAALTITGAQTEDEAIYFCALWYSNHLVFGGGTKLTVLG
B12: 15B6 (antibody, IgG1, V domains shown)
VH: QVQLQQPGAELVKPGASVKLSCKASGYTFTSYWMHWVKQRPGQGLEWIGMIHPNSGSTNYNEKFKSKATLTVDKSSSTAYMQLSSLTSEDSAVYYCARKRGGLGDYWGQGTSVTVSS
VL: DIVLTQSPASLAVSLGQRATISCRASKSVSTSGYSYMHWYQQKPGQPPKLLIYLASNLESGVPARFSGSGSGTDFTLNIHPVEEEDAATYYCQHSRELPYTFGGGTKLEIK

Each binder was assayed against chimeric BTLA of humanised-BTLA mice (human extracellular region, murine transmembrane and signaling … (human; mouse, UniProt Q7TSA3 184-306, limits assumed) (assay: cell-based or functional assay).
chimeric BTLA of humanised-BTLA mice (human extracellular region, murine transmembrane and signaling …, sequence (Q7TSA3 other isoform, or with tags, fused parts or gaps mutant limits assumed): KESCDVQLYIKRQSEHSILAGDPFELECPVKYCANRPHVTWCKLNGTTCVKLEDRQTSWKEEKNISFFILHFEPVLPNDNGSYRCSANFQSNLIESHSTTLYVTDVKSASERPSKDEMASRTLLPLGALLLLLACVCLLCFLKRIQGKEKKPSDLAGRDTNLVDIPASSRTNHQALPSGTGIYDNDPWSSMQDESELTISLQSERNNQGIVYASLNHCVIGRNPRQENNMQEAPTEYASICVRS

Row | AntiCD3/CD28 (CD4 T cell proliferation) repeat 1, % inhibition | AntiCD3/CD28 (CD4 T cell proliferation) repeat 2, % inhibition | AntiCD3/CD28 (CD69+ CD4 T cells) repeat 1, % inhibition | AntiCD3/CD28 (CD69+ CD4 T cells) repeat 2, % inhibition | MLR (CD4 T cell proliferation) repeat 1, % inhibition | MLR (CD4 T cell proliferation) repeat 2, % inhibition | Binder
1 | 14% | 17% | 28% | 38% | 23% | 29% | B1
2 | 2% | -2% | 12% | 19% | 19% | 8% | B2
3 | 27% | 35% | 52% | 64% | 43% | 35% | B3
4 | 8% | 14% | 24% | 36% | 16% | 25% | B4
5 | 4% | 8% | 9% | 23% | 33% | 8% | B5
6 | 5% | 9% | 30% | 40% | 28% | 23% | B6
7 | 11% | 19% | 35% | 30% | 12% | 10% | B7
8 | 10% | 13% | 24% | 22% | 9% | 8% | B8
9 | 26% | 19% | 47% | 53% | 31% | 16% | B9
10 | 4% | 0% | 19% | 17% | 9% | -5% | B10
11 | 12% | 4% | 29% | 29% | 42% | -2% | B11
12 | 9% | 16% | 13% | 20% | 7% | 13% | B12

These binders were tested against full length human BTLA expressed in a Jurkat T cell line (human, UniProt Q7Z6A9 31-289) (assay: cell-based or functional assay).

Row | T cell reporter (NFkB signaling), % inhibition | Binder
13 | 20% | B1
14 | 9% | B2
15 | 30% | B3
16 | 27% | B4
17 | 22% | B5
18 | 30% | B6
19 | 29% | B7
20 | 24% | B8
21 | 26% | B9
22 | 20% | B10
23 | 21% | B11
24 | 21% | B12
